# Laboratory results: the domain aggregation screens of Martell et al. (2025)
# Experiment: soluble fraction after stress (log2 fold change); higher = more stays soluble; pooled small domains, quantitative proteomics
# Settings: stress: pH 4
# Method in brief: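 Small protein domains from pooled custom libraries were exposed to pH 4, then quantified with high-throughput quantitative proteomics. The fold change in how much of each domain remains soluble is read as aggregation propensity. It is given as log2, with higher values meaning more stayed soluble.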
row,Sequence,soluble fraction (log2)
1,HMSVDDEQLLKIIDDIFQQNPQAVTDAKTDSNAIHFLIGQVMKETKGHADHAISKEIIEKKLS,-0.726
2,HMSVDEVEALYLKIAEDRLEGKLPDKVSESDLMRRYGLTKAQLGAILQRIVHEGWIERTPGHGWRFLPIL,-0.368
3,HMSVFMIIVLKQHAPQEFVDMLMSSIKAKGVQIDVSKGARKTILGLVGNTSVIDREQIAGYEYVDKVIRV,-0.289
4,HMSVFTDIYHQADHETKLMLIHEIKIVGDEKEFRLLKSIIDSTSNDLSKEANDALNAIKIRLALSK,-1.25
5,HMSVFTPLTRSELETFLAPYELGRLLDFQGIAAGSENTNYFISLEKGEYVLTLVERGPVAEMPFFIELLD,-1.49
6,HMSVGDLLENLIRETRAQFSAPPESLGVAEKRRFVALLSQKGGFLLKGAVSRAASVLGVSEQTVYRYLKDS,0.0671
7,HMSVGDLPPEAREIWKLLDGRELSLDLLAEETGRETGALLSTLMMLEMKLLVEHGSDMVYRRIPRR,-1.62
8,HMSVHSAELKKLKAHLLGIIGRELETQPSTENREEMVRQILHQSYESLRLNLPMQLKEELFNEILAEVL,-0.689
9,HMSVLEHVSGNVRRLRLQAGLSQEALARAASVSRRMLVGIESGDVNVSLSTLDRIAAALGVLFPDLVQAP,-0.392
10,HMSVLPAREQVAAILRQAILLRKFKEGQDLTLKDAAELVGSSITPVREAFQILENEGLIELRPNKGAVVL,-0.616
11,HMSVPEDLYFRELEVEGNKVRISGIASTNNRVSALMRNFDQSEWFRDPSLIKVESKSPGVNEFEIVMTRI,-0.761
12,HMSVPNVVGRDQVEASSLLESAGFKVSVKQSYSDSVEQGKVISQSPSGSTTVSPGSTVTITVSQ,-0.155
13,HMSVPRPSAVEVTSLVTGVRDLLPHLGEGYVERVLVEFGFKVDETINALLEGNLPKHLQDLDPSLTKEI,-1.25
14,HMSVPVDEVLAALTQKLTDLRTQAMAAKDFSAVDALKAALTEAGVEVRMSKTGVELIAGPRVDAKKLGTL,-0.268
15,HMSVRPMVEILRVVGSPSPVWVTWARNRAAWLYETGIRPQQRLRMADGTEVLIRLVGEFAHILVVGG,0.0642
16,HMSVSATQMDAFVRQLRARLSSADGLDDAARLVRQDLEPFLGRFSDETERDFAAAIEQVRGSIRPVEI,-1.73
17,HMSVSEAELAEKYHADDLEALKSGKLHEFQENLIDRNGKKYTVQTMKDILTLSDGTRLLLGIGLD,-0.0916
18,HMSVTDDQLRVFTNKSGTKIKAKIVEVSDDKVKLIRDDNKKFIVPINSLSEEDQDYLRDWVSNEAVEP,-0.0786
19,HMSVTIDAGGKVYLQESEIADDQLVPRLVAISNNGYDKPIYLRADKTVGYGRVAEVMSLLNAAGFTKLVLV,-0.244
20,HMSVTRELMLVKVKVTPEQRAGVSAIVDIFRANIIDVGKESMIIELTGNKSKLEAFIDLLDGYEILELART,-0.865
21,HMSVTVPDVKRMQAEDAKALLSRYRLRSEVIDSVYVDNIPRGAVVEQIPRENSSVKENRIVFLTINSN,-0.546
22,HMSVTYRYSYVYNGNTYSDGWSVRRAIENNENKRFGPEPSDLDHEAQKQARVTFWAEHGVEYKEQEVV,-0.423
23,HMSVYIGVDQAKSIAAEHAGLSNSAVTFSKAKLENDDGMTVYEVEFFYQGTEYDYKIDASTGSILEYDLDR,-0.0157

row,Sequence,soluble fraction (log2)
1,HMSWEDSLLKQAREIIDMYPQKRSAVGPLLHLAQSKDGYISDDSISVISKLVGITEVQLKSVSTFYSMYK,-1.23
2,HMSWEELLEHLEKAAERGEEVRIAGVTLHDEEDFKRALRWLKEWL,-1.47
3,HMSYIGEEKAKSIAVSNVKGAGTNNVVKVEFDYDDGRAVYEVKVVYNAMEYEFEIDASNGKILSRDAESIY,-0.027
4,HMSYKFDSLAIILNKLDGKETVNVSSLSDELEVSARTVHRYIGTLQVAGFPIEYDKTKNSYIFSEGYTL,-1.05
5,HMSYQFKIKNNAAVEVTVSEKNNLLGSTYGDKATVAAGMEKNVTFYTDKPDVVVDTNGNFTITVHDKEIII,-0.221
6,HMSYSYIYNYALKVKMDISSTGGKKPYAYYYYDHSYKLAEEILSLSEETESIELQNKYDELKDFYENP,-1.04
7,HMSYTWHDMYLLAQEYQKEHGNLIIPRNYKGKNGLNLGYWLYKEKLKYRQGKLAPEKIIALEHIGIVWT,0.22
8,HMSYYKEMIRLADSIADKAHEGQTDRNGWPYISHPRRVALGARKLVSEMASSTSPDTSLEELKAEVQIVAL,0.00833
9,HMTAAPEVRVEGLFKGAAVLKIDGQQVMLKKGRSHSSGVTLVDANAHRAIVEIDGQRHELALHMA,0.0925
10,HMTADIRFLNSRKFYIYKVEKGETLFSISQKFNIPQEEIIQFNKDINQQGLKAKTKLWVPAYSWL,-0.43
11,HMTAGTGIAYSEFRSKVQEGQVKDVAIAPDRITGTLSSGQKFSTVPVNDPGLPKMLDDFNVKYSGQA,0.22
12,HMTAIWKTITATLTHDIATGKYAPGDRLPTEAQLAARFGVNRHTVRRAISDMNESGLTYSRRGAGVFVAQ,≥ 0.43
13,HMTALAVGDRVKMDKSATIYGTMRKFAAWVYATKLYVRGIDGNRVVVSTLKSGAITGAVDKKHLTK,-0.0515
14,HMTAMDTQQKKLIIMYHDIHRLRNVEHFTIQRIADHLLLNFRTVKKFLEMTQEEFDKFSENRW,-0.0481
15,HMTANPSTEEIMARVEAIPLPIKRLPPGQIVQAQTVAATVLRSNPGLDLAKAWKLAYATVTGQE,-0.00256
16,HMTANTQVENIRLELQRYMDEHGISQVTVARGIGKTHPVISQFLNNKYPGDVEEVARAIESWLTKQHEKAA,0.381
17,HMTAPELGIRQDGNTLVIFWPSSVTGYVLKSADAVDTPPASWTSVTHTTVGDEHRAEITPTGNSRFFRLV,-0.492
18,HMTAPQAQDYARVPDVLGLDMRESAQALRLDGFEMNAQGDGLAARQSPIGGSYAPEGTQVLVTFEM,-0.0592
19,HMTAQLAAQERTHALDMFMGGYKFSSKPAENGVRAEFEKKNFTLEDGKFLGGDEFMKSLMENDDYKGAFV,-0.509
20,HMTASKSTVSTPEKVVYHIVFPKETKYSIAKKYGITIEELEKRNPEIIPSLSVGQKLVIKGTAPK,0.173
21,HMTATDRQLQLIAYTAARLMAEQGIADFNAAKRKAIQTLGLPNNAKLPGNADVEAQLRAYQRIF,0.0539
22,HMTATKDLPFSTFITEVEKGNITSVDIKGNQIEGTFSNGAKFKTYSPNYPNLVERLADKGVAISAGPS,0.141
23,HMTAVPADVETVTGFTALDRAGLDTLLARLGLAMDLEDLSFLQAYFRDTERRDPTLTEIRVVDTYWSDH,-1.44

row,Sequence,soluble fraction (log2)
1,HMTDAEQHEALLFKQVVDGLPQTLRDTFVLSRHAGMTYAEISAHTGTPIKTVESRMAKALELIAQRMR,0.0158
2,HMTDDALIGKTAQVTVAIKPGSVGQITARVGDERVERLARASADAEIAAGSLVTIKSIAGDSVIVAPE,0.22
3,HMTDDPGLSRAENRELQTLLLDRGHDIGQPDGLIGAKTRAAIRAEQSRLNMPVNGRGGQKLLRALRL,-0.46
4,HMTDFLKTRIDTLGLSTRTLNALSEANVRTIGGIARKKQEDLLEIDGIGEKGIQEIKKMLGEYGITL,-0.52
5,HMTDFSDLSFKYNSEEKDVLNSINLKINGGEMTSLVGHSGAGKTTILNLIPRFYEKSKGDISIDGQSIY,-0.172
6,HMTDGLTVPMQGVVIRYKAKKGDKVAVGDAVAVLEAMKMEQNIFANKSGTIKEIYIKEGTTVTPGDVLMSI,-0.89
7,HMTDLNDTQIKILELLSADASLSAAKMAGQLGIAGRNVEANIKKLKEKGILIRHGSPKSGYWEIVN,0.0328
8,HMTDNSTTTIRNLKIEWLLEEIRNAVRTGVSVDAAVERISNNPFVKPPEDLLNEARIIFLQNAGQI,-0.848
9,HMTDPVLYEERDDIAIITINRPEKKNTLTDAVIQGIADGIDAATKSADVVAVVLRGAGDTLTAGYDLTA,-1.28
10,HMTDSDTQDIDVGELRVGHFVFLDLSWIRHPFPLSSFKIQSAEQIKTIRSLGLRRIRYSPGRSGP,-0.882
11,HMTDSSEILEAALKEAEDAAHEVLNGTFSVQLEPQKAYIRRLQHMLIDRMNLSSTSKGKEPYRSLLVYR,-0.601
12,HMTDTDVLSSRLSALSSGRTSAVRLRDGVLSLVLDVGGLSIEARKAMTTAIESTARATPGVEAVRIAET,0.278
13,HMTDTSFPRLGAPEEELLSFLAKWEIDAEDAHYTKFSLYYQSTGKMMRDWKATWRAWKERQSELNAQR,-1.05
14,HMTDVGLEAAKAAALKHAGLSADQVTGLTAKLDWDDGQRVYEVDFWQGSTEYEYEINADGTVRQYESEAH,-0.469
15,HMTDVRFIDIPVTEHHPWNGMKVRDLQLPPGTLLVFLSHPGEKNTVPHGETVLRSGDVLVLGATAYTGQ,-0.681
16,HMTDVRFISIPIQKEHPWNRKLVSELNLPPGTLLVFLRRTGENIVPNGKTMIQEGDVLVLGASAYR,-1.04
17,HMTEALEFTVEDLRMAGLVNSSFSRRRRELFSEKLGIGYGNGKSLLKKLNGYGITREEFNGAIQSLSD,-1.3
18,HMTEIILTARSGRHAVRHRLEGLGYTLTPEELERVHQRFLAVADAKKEVFDEDLHALMADERGT,-0.467
19,HMTEKMILKWKEALERMNDDFTTKDWLNVVIHEMGKSERTAYGWLSDMKRSGIIKDLGYGSWLKVLE,-0.2
20,HMTEKPTREAHILDQLARDGGVLVAALSRELGVSEVTIRSDLRDLEAAGLLQRTHGGAQASSFQTVL,-0.48
21,HMTELNNTQRAAVLLLALDEDSAAEVFKHLSAREVQEVSQEMAKLGNISHDQMRQVLDDFYDESEQF,-1.01
22,HMTELPLTPRSKRILEMSALEARRLNHSYIGTEHLLMAIIRDGDGVAAKILESLGVNLPNFYTDTVRSIE,-0.0691
